Results: US10808009B2, “Peptide conjugates” (BIONIZ, LLC, priority 2011, dated 2020)
No end group written: not given here. MAL‑PEG24 = bi-functional PEG24 molecule (Mal-PEG24)

Experiments:
Type in all cases: cell-based
IL-15 = IL-15 (Homo sapiens, UniProt P40933); experiment: CTLL2 proliferation assay (WST-1), IL-15, dual peptide; conditions: CTLL2 cells, IL-15 2.5 ng/ml and 5 ng/ml, increasing BNZ132-PEG-130 (0.1-10 uM)
IL-2 = IL-2 (Homo sapiens, UniProt P60568); experiment: CTLL2 proliferation assay (WST-1), IL-2, dual peptide; conditions: CTLL2 cells, IL-2 5 u/ml and 10 u/ml, increasing BNZ132-PEG-130 (0.1-10 uM)
IL-6 = experiment: T1165 proliferation assay (WST-1), IL-6, dual peptide; conditions: T1165 cells, IL-6 0.1 ng/ml, increasing BNZ132-PEG-130

Sequence of IL-2 (P60568 21-153): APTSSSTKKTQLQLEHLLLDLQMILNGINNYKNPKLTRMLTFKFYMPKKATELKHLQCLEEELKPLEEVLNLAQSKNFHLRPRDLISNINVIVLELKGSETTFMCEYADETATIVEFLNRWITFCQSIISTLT
Sequence of IL-15 (P40933 49-162): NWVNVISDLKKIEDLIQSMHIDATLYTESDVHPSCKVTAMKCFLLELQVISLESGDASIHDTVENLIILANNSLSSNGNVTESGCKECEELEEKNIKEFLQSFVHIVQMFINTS

IKEFLQSFIHIVQSIINT (SEQ ID NO: 130)—MAL-PEG24—SLTHLIERSSRAVLQSLLRASRQ (SEQ ID NO: 131) (linker (positions not given here) via MAL‑PEG24; also: MAL-PEG24 attachment sites not given here) [BNZ132-PEG-130, BNZ132-1 conjugated to BNZ130 via a PEG24 linker; dual peptide antagonist]
inhibited in a dose response manner: inhibition of IL-15-induced proliferation (IL-15) | inhibition of IL-2-induced proliferation (IL-2) | inhibition of IL-6-induced proliferation (IL-6)
